Experimental data taken from US20210032299A1.
Starred links: 1 amine or outer side, 2 acyl side, 3 side chain; linkers in the order of their positions; H or OH if unused. Non-standard residues stand in square brackets, D forms with d. Groups on a side chain read outwards from the residue. No end group written: not given here. *: point of attachment. C20 diacid = O=C(O)CCCCCCCCCCCCCCCCCCC(=O)*; αMePhe(2-F) = C[C@](N)(Cc1ccccc1F)C(=O)O; γGlu = O=C(O)[C@H](CCC(=O)[*:2])N[*:1]; 4Pal = N[C@@H](Cc1ccncc1)C(=O)O; αMeL = CC(C)C[C@](C)(N)C(=O)O; Orn = NCCC[C@H](N)C(=O)O; AEEA = NCCOCCOCC(=O)O; Aib = CC(C)(N)C(=O)O

T1: human glucose-dependent insulinotropic polypeptide (GIP) receptor (human), P48546
T1 chain: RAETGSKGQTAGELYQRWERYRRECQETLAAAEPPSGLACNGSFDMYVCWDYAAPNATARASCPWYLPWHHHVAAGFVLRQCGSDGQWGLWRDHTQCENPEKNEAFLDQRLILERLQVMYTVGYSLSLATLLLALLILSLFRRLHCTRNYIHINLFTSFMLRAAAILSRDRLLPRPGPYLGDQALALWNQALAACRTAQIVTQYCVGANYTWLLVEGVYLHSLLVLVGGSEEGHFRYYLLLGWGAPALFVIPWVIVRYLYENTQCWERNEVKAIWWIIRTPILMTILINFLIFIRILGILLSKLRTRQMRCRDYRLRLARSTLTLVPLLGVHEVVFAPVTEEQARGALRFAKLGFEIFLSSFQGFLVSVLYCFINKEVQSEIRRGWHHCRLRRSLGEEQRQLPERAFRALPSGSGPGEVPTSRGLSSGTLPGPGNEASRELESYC


What was measured:
[1] = biological target: T1, human glucose-dependent insulinotropic …; experiment: SPA, displacement of [125I]-GIP from hGIPR membranes, 0.1% bacitracin
[2] = biological target: human glucagon receptor (human), P47871; experiment: SPA, displacement of [125I]-Gcg from hGcgR membranes, 0.1% bacitracin
Chain of human glucagon receptor (human), P47871 (P47871 26-477): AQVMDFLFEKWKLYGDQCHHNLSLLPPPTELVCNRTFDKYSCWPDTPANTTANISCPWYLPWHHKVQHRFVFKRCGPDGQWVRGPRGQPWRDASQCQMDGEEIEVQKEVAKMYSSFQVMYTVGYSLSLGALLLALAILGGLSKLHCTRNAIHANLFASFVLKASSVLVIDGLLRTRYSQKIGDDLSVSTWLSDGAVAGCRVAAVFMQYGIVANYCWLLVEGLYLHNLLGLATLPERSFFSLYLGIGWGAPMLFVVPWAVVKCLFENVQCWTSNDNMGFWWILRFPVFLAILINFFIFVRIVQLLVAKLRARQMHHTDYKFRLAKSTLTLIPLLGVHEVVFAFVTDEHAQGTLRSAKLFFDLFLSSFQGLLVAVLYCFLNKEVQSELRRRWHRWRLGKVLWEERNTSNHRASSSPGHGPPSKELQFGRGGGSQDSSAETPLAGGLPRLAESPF

Row | Binder | Ki [1] [nM] | Ki [2] [nM]
1 | Y[Aib]EGTFISDYSI[αMeL]LD[Orn]IHQ[Aib]EFVEYK([AEEA-AEEA-γGlu-C20 diacid])LEGGPSSGAPPPS-NH2 (N-terminus assumed; SMILES CC[C@H](C)[C@H](NC(=O)[C@H](CCCN)NC(=O)[C@H](CC(=O)O)NC(=O)[C@H](CC(C)C)NC(=O)[C@](C)(CC(C)C)NC(=O)[C@@H](NC(=O)[C@H](CO)NC(=O)[C@H](Cc1ccc(O)cc1)NC(=O)[C@H](CC(=O)O)NC(=O)[C@H](CO)NC(=O)[C@@H](NC(=O)[C@H](Cc1ccccc1)NC(=O)[C@@H](NC(=O)CNC(=O)[C@H](CCC(=O)O)NC(=O)C(C)(C)NC(=O)[C@@H](N)Cc1ccc(O)cc1)[C@@H](C)O)[C@@H](C)CC)[C@@H](C)CC)C(=O)N[C@@H](Cc1c[nH]cn1)C(=O)N[C@@H](CCC(N)=O)C(=O)NC(C)(C)C(=O)N[C@@H](CCC(=O)O)C(=O)N[C@@H](Cc1ccccc1)C(=O)N[C@H](C(=O)N[C@@H](CCC(=O)O)C(=O)N[C@@H](Cc1ccc(O)cc1)C(=O)N[C@@H](CCCCNC(=O)COCCOCCNC(=O)COCCOCCNC(=O)CC[C@H](NC(=O)CCCCCCCCCCCCCCCCCCC(=O)O)C(=O)O)C(=O)N[C@@H](CC(C)C)C(=O)N[C@@H](CCC(=O)O)C(=O)NCC(=O)NCC(=O)N1CCC[C@H]1C(=O)N[C@@H](CO)C(=O)N[C@@H](CO)C(=O)NCC(=O)N[C@@H](C)C(=O)N1CCC[C@H]1C(=O)N1CCC[C@H]1C(=O)N1CCC[C@H]1C(=O)N[C@@H](CO)C(N)=O)C(C)C) [Example 107] | 0.0722 | 347
2 | Y[Aib]EGTFISDYSI[αMeL]LDKIRQ[Aib]DFVEYK([AEEA-AEEA-γGlu-C20 diacid])LEGGPSSGAPPPS-NH2 (N-terminus assumed; SMILES CC[C@H](C)[C@H](NC(=O)[C@H](CCCCN)NC(=O)[C@H](CC(=O)O)NC(=O)[C@H](CC(C)C)NC(=O)[C@](C)(CC(C)C)NC(=O)[C@@H](NC(=O)[C@H](CO)NC(=O)[C@H](Cc1ccc(O)cc1)NC(=O)[C@H](CC(=O)O)NC(=O)[C@H](CO)NC(=O)[C@@H](NC(=O)[C@H](Cc1ccccc1)NC(=O)[C@@H](NC(=O)CNC(=O)[C@H](CCC(=O)O)NC(=O)C(C)(C)NC(=O)[C@@H](N)Cc1ccc(O)cc1)[C@@H](C)O)[C@@H](C)CC)[C@@H](C)CC)C(=O)N[C@@H](CCCNC(=N)N)C(=O)N[C@@H](CCC(N)=O)C(=O)NC(C)(C)C(=O)N[C@@H](CC(=O)O)C(=O)N[C@@H](Cc1ccccc1)C(=O)N[C@H](C(=O)N[C@@H](CCC(=O)O)C(=O)N[C@@H](Cc1ccc(O)cc1)C(=O)N[C@@H](CCCCNC(=O)COCCOCCNC(=O)COCCOCCNC(=O)CC[C@H](NC(=O)CCCCCCCCCCCCCCCCCCC(=O)O)C(=O)O)C(=O)N[C@@H](CC(C)C)C(=O)N[C@@H](CCC(=O)O)C(=O)NCC(=O)NCC(=O)N1CCC[C@H]1C(=O)N[C@@H](CO)C(=O)N[C@@H](CO)C(=O)NCC(=O)N[C@@H](C)C(=O)N1CCC[C@H]1C(=O)N1CCC[C@H]1C(=O)N1CCC[C@H]1C(=O)N[C@@H](CO)C(N)=O)C(C)C) [Example 115] | 0.0997 | 373
3 | Y[Aib]EGTFISDYSI[αMeL]LDKIHQ[Aib]EFVE[4Pal]K([AEEA-AEEA-γGlu-C20 diacid])LEGGPSSGAPPPS-NH2 (N-terminus assumed; SMILES CC[C@H](C)[C@H](NC(=O)[C@H](CCCCN)NC(=O)[C@H](CC(=O)O)NC(=O)[C@H](CC(C)C)NC(=O)[C@](C)(CC(C)C)NC(=O)[C@@H](NC(=O)[C@H](CO)NC(=O)[C@H](Cc1ccc(O)cc1)NC(=O)[C@H](CC(=O)O)NC(=O)[C@H](CO)NC(=O)[C@@H](NC(=O)[C@H](Cc1ccccc1)NC(=O)[C@@H](NC(=O)CNC(=O)[C@H](CCC(=O)O)NC(=O)C(C)(C)NC(=O)[C@@H](N)Cc1ccc(O)cc1)[C@@H](C)O)[C@@H](C)CC)[C@@H](C)CC)C(=O)N[C@@H](Cc1c[nH]cn1)C(=O)N[C@@H](CCC(N)=O)C(=O)NC(C)(C)C(=O)N[C@@H](CCC(=O)O)C(=O)N[C@@H](Cc1ccccc1)C(=O)N[C@H](C(=O)N[C@@H](CCC(=O)O)C(=O)N[C@@H](Cc1ccncc1)C(=O)N[C@@H](CCCCNC(=O)COCCOCCNC(=O)COCCOCCNC(=O)CC[C@H](NC(=O)CCCCCCCCCCCCCCCCCCC(=O)O)C(=O)O)C(=O)N[C@@H](CC(C)C)C(=O)N[C@@H](CCC(=O)O)C(=O)NCC(=O)NCC(=O)N1CCC[C@H]1C(=O)N[C@@H](CO)C(=O)N[C@@H](CO)C(=O)NCC(=O)N[C@@H](C)C(=O)N1CCC[C@H]1C(=O)N1CCC[C@H]1C(=O)N1CCC[C@H]1C(=O)N[C@@H](CO)C(N)=O)C(C)C) [Example 100] | 0.0674 | 572
4 | Y[Aib]EGT[αMePhe(2-F)]ISDYSIALDKIHQ[Aib]DFVE[4Pal]K([AEEA-AEEA-γGlu-C20 diacid])LEAGPSSGAPPPS-NH2 (N-terminus assumed; SMILES CC[C@H](C)[C@H](NC(=O)[C@H](CO)NC(=O)[C@H](Cc1ccc(O)cc1)NC(=O)[C@H](CC(=O)O)NC(=O)[C@H](CO)NC(=O)[C@@H](NC(=O)[C@](C)(Cc1ccccc1F)NC(=O)[C@@H](NC(=O)CNC(=O)[C@H](CCC(=O)O)NC(=O)C(C)(C)NC(=O)[C@@H](N)Cc1ccc(O)cc1)[C@@H](C)O)[C@@H](C)CC)C(=O)N[C@@H](C)C(=O)N[C@@H](CC(C)C)C(=O)N[C@@H](CC(=O)O)C(=O)N[C@@H](CCCCN)C(=O)N[C@H](C(=O)N[C@@H](Cc1c[nH]cn1)C(=O)N[C@@H](CCC(N)=O)C(=O)NC(C)(C)C(=O)N[C@@H](CC(=O)O)C(=O)N[C@@H](Cc1ccccc1)C(=O)N[C@H](C(=O)N[C@@H](CCC(=O)O)C(=O)N[C@@H](Cc1ccncc1)C(=O)N[C@@H](CCCCNC(=O)COCCOCCNC(=O)COCCOCCNC(=O)CC[C@H](NC(=O)CCCCCCCCCCCCCCCCCCC(=O)O)C(=O)O)C(=O)N[C@@H](CC(C)C)C(=O)N[C@@H](CCC(=O)O)C(=O)N[C@@H](C)C(=O)NCC(=O)N1CCC[C@H]1C(=O)N[C@@H](CO)C(=O)N[C@@H](CO)C(=O)NCC(=O)N[C@@H](C)C(=O)N1CCC[C@H]1C(=O)N1CCC[C@H]1C(=O)N1CCC[C@H]1C(=O)N[C@@H](CO)C(N)=O)C(C)C)[C@@H](C)CC) [Example 113] | 0.108 | 821
5 | Y[Aib]EGTFISDYSI[αMeL]LD[Orn]IHQ[Aib]EFVEYK([AEEA-AEEA-γGlu-C20 diacid])LEQGPSSGAPPPS-NH2 (N-terminus assumed; SMILES CC[C@H](C)[C@H](NC(=O)[C@H](CCCN)NC(=O)[C@H](CC(=O)O)NC(=O)[C@H](CC(C)C)NC(=O)[C@](C)(CC(C)C)NC(=O)[C@@H](NC(=O)[C@H](CO)NC(=O)[C@H](Cc1ccc(O)cc1)NC(=O)[C@H](CC(=O)O)NC(=O)[C@H](CO)NC(=O)[C@@H](NC(=O)[C@H](Cc1ccccc1)NC(=O)[C@@H](NC(=O)CNC(=O)[C@H](CCC(=O)O)NC(=O)C(C)(C)NC(=O)[C@@H](N)Cc1ccc(O)cc1)[C@@H](C)O)[C@@H](C)CC)[C@@H](C)CC)C(=O)N[C@@H](Cc1c[nH]cn1)C(=O)N[C@@H](CCC(N)=O)C(=O)NC(C)(C)C(=O)N[C@@H](CCC(=O)O)C(=O)N[C@@H](Cc1ccccc1)C(=O)N[C@H](C(=O)N[C@@H](CCC(=O)O)C(=O)N[C@@H](Cc1ccc(O)cc1)C(=O)N[C@@H](CCCCNC(=O)COCCOCCNC(=O)COCCOCCNC(=O)CC[C@H](NC(=O)CCCCCCCCCCCCCCCCCCC(=O)O)C(=O)O)C(=O)N[C@@H](CC(C)C)C(=O)N[C@@H](CCC(=O)O)C(=O)N[C@@H](CCC(N)=O)C(=O)NCC(=O)N1CCC[C@H]1C(=O)N[C@@H](CO)C(=O)N[C@@H](CO)C(=O)NCC(=O)N[C@@H](C)C(=O)N1CCC[C@H]1C(=O)N1CCC[C@H]1C(=O)N1CCC[C@H]1C(=O)N[C@@H](CO)C(N)=O)C(C)C) [Example 106] | 0.0918 | 304
6 | Y[Aib]EGT[αMePhe(2-F)]ISDYSIALDKIHQ[Aib]DFVE[4Pal]K([AEEA-AEEA-γGlu-C20 diacid])LEGGPSSGAPPPS-NH2 (N-terminus assumed; SMILES CC[C@H](C)[C@H](NC(=O)[C@H](CO)NC(=O)[C@H](Cc1ccc(O)cc1)NC(=O)[C@H](CC(=O)O)NC(=O)[C@H](CO)NC(=O)[C@@H](NC(=O)[C@](C)(Cc1ccccc1F)NC(=O)[C@@H](NC(=O)CNC(=O)[C@H](CCC(=O)O)NC(=O)C(C)(C)NC(=O)[C@@H](N)Cc1ccc(O)cc1)[C@@H](C)O)[C@@H](C)CC)C(=O)N[C@@H](C)C(=O)N[C@@H](CC(C)C)C(=O)N[C@@H](CC(=O)O)C(=O)N[C@@H](CCCCN)C(=O)N[C@H](C(=O)N[C@@H](Cc1c[nH]cn1)C(=O)N[C@@H](CCC(N)=O)C(=O)NC(C)(C)C(=O)N[C@@H](CC(=O)O)C(=O)N[C@@H](Cc1ccccc1)C(=O)N[C@H](C(=O)N[C@@H](CCC(=O)O)C(=O)N[C@@H](Cc1ccncc1)C(=O)N[C@@H](CCCCNC(=O)COCCOCCNC(=O)COCCOCCNC(=O)CC[C@H](NC(=O)CCCCCCCCCCCCCCCCCCC(=O)O)C(=O)O)C(=O)N[C@@H](CC(C)C)C(=O)N[C@@H](CCC(=O)O)C(=O)NCC(=O)NCC(=O)N1CCC[C@H]1C(=O)N[C@@H](CO)C(=O)N[C@@H](CO)C(=O)NCC(=O)N[C@@H](C)C(=O)N1CCC[C@H]1C(=O)N1CCC[C@H]1C(=O)N1CCC[C@H]1C(=O)N[C@@H](CO)C(N)=O)C(C)C)[C@@H](C)CC) [Example 112] | 0.0742 | 257
